Assay results taken from patent US20250163223A1, “HYDROGEL INCLUSION COMPLEX INCLUDING PHYSIOLOGICALLY ACTIVE MATERIAL BOUND TO THERMOSENSITIVE POLY(PHOSPHAZENE) BY HOST-GUEST INTERACTION USING BETA-CYCLODEXTRIN AND USE THEREOF” (KOREA INSTITUTE OF SCIENCE AND TECHNOLOGY, priority 2019, published 2025).
Ends that are not written are not given here. PEG = not defined here

Experiment: Dynamic light scattering (DLS) particle size in aqueous environment
Type: physicochemical
Excerpt: In this example, it was hypothesized that binding affinity between β-CD and Ad-RGD would induce the well-controlled guest molecule amount through the Ad-RGDs inserted at different amounts with one another. First of all, β-CD PPZ and β-CD PPZ+Ad-RGD gave different results from measurement of dynamic light scattering (DLS). […] As Ad-RGDs were included in β-CD PPZ, the practical size of aqueous particles of β-CD PPZ+Ad-RGD was increased.
Further, to identify whether Ad-peptides were stoichiometrically and accurately inserted into the host molecules, dynamic light scattering (DLS) measurement was performed by mixing host molecules and guest molecules such that the ratio of host molecule: guest molecule was 1:1, 1:1.2, and 0:1. […] In this DLS result of the conjugate in which the ratio of host molecule:guest molecule was 1:1, any peaks involved in guest molecules alone were not shown (C of FIG. 17). It means that there were no guest molecules separated from β-CD PPZ. […] This means that all of the Ad-peptides were incorporated into the conjugates of β-CD PPZ and Ad-peptide (host molecule:guest molecule=1:1) in the aqueous environment. On the other hand, it was confirmed that when Ad-peptides was excessively mixed with β-CD PPZ (host molecule: guest molecule=1:1.2), the surplus Ad-peptides formed their own other peaks analogous to those of Ad-TGF and Ad-HAV alone (FIG. 18). […]

## adamantane-PEG-CESPLKRQ ({adamantane-PEG}-CESPLKRQ; reading uncertain) [Ad-TGF, TGF-β1 mimic peptide linked to adamantane via PEG]
  average particle size: 353.63±31.71 nm

## adamantane-PEG-CLRAHAVDIN ({adamantane-PEG}-CLRAHAVDIN; not fully specified; reading uncertain) [Ad-HAV, N-cadherin mimic peptide linked to adamantane via PEG]
  average particle size: 460.78±49.53 nm
